Four proteins from article PMC9603128, “Physiological, Biochemical, and Structural Bioinformatic Analysis of the Multiple Inositol Dehydrogenases from Corynebacterium glutamicum” (Microbiology Spectrum, 2022) can be followed below.

Usually Km stands for the concentration of substrate that gives half-maximal velocity. Broadly, the Vmax is the rate approached at saturating substrate. What is called kcat is the maximal rate divided by the concentration of active sites. Broadly, the kcat/Km is the turnover number divided by the Michaelis constant.

Assay in all cases: purified protein
What all share (format): biochemical, Corynebacterium glutamicum
What all share (details): 5 mM NAD+, pH 7.5, 100 mM potassium phosphate, 1 mM MgSO4, 30 °C, substrate 0.5 to 50 mM

Substrate in data set [1]: O[C@H]1[C@H](O)[C@H](O)[C@@H](O)[C@H](O)[C@H]1O
Substrate in data set [2]: O[C@H]1[C@H](O)[C@@H](O)[C@H](O)[C@@H](O)[C@H]1O
Substrate in data set [3]: O[C@H]1[C@H](O)[C@@H](O)[C@H](O)[C@@H](O)[C@@H]1O

B1: OxiD (Corynebacterium glutamicum ATCC 13032) (protein)
chain: MTLRIALFGAGRIGHVHAANIAANPDLELVVIADPFIEGAQRLAEANGAEAVASPDEVFARDDIDGIVIGSPTSTHVDLITRAVERGIPALCEKPIDLDIEMVRACKEKIGDGASKVMLGFNRRFDPSFAAINARVANQEIGNLEQLVIISRDPAPAPKDYIAGSGGIFRDMTIHDLDMARFFVPNIVEVTATGANVFSQEIAEFNDYDQVIVTLRGSKGELINIVNSRHCSYGYDQRLEAFGSKGMLAADNIRPTTVRKHNAESTEQADPIFNFFLERYDAAYKAELATFAQGIRDGQGFSPNFEDGVIALELANACLESAQTGRTVTLNPANV
notes: full length, C-terminal Strep-tag II, expressed in C. glutamicum MB001(DE3) from pPREx6-OxiD; StrepTactin and size exclusion
As for B1, in the data set “purified protein [1]”, the Km turned out to be 50.6 ± 8.7 mM, the Vmax was 25.5 µmol/min/mg, the kcat worked out at 15.4 ± 1.7 s⁻¹ and the kcat/Km was determined as 308 ± 20 M⁻¹ s⁻¹. In addition, in the data set “purified protein [2]”, the Michaelis constant (Km) amounted to 19.6 ± 1.8 mM, the Vmax is 59 µmol/min/mg, the kcat turned out to be 35.6 ± 1.4 s⁻¹ and the catalytic efficiency (kcat/Km) came to 1830 ± 107 M⁻¹ s⁻¹.

B2: OxiB (Corynebacterium glutamicum ATCC 13032) (protein)
chain: MTQQELRVAVIGAGMAGKAHAAGYRTASSIYSTTLPNIRLVSIADANVQLAEETAARFGFERFDTSWQAIVEADDIDVVSVVVANFLHREIVEALLASGKHVLCEKPLSDTIEDAEAMIEAAGRAATNGTIARIGLTYRRSPGVAHIRDLVQSGELGKVLHVTGHYWTDYGSNAQAPISWRYKGPNGSGALADVGSHLTYLAEFVAGSDFAAVRGGQLSTVITERPKPLGAIVGHEGGAVSDEYEAVENDDIASFSGSFIGGGTATLQVSRISQGHPNTLGFEVFCEKGSVLFDFRNSGEFKIFTPATSGDISQEAGYRTITIGPKHPYWRGGLAMDAPGVGIGQNEGFVFQARAFLEEIAGISEAESLPRCATLEEGLHNMQLIDAVSQSAAAGGETVAVPAAALIPANN
notes: full length, C-terminal Strep-tag II, expressed in C. glutamicum MB001(DE3) from pPREx6-OxiB; StrepTactin and size exclusion
With B2, in the data set “purified protein [2]”, the Km stood at 62.1 ± 12.5 mM, the maximal velocity (Vmax) is 5.8 µmol/min/mg, the kcat is 4.2 ± 0.4 s⁻¹ and the kcat/Km is 69.1 ± 7.3 M⁻¹ s⁻¹. Further, in “purified protein [3]”, the Km was 28.8 ± 7.1 mM, the Vmax was determined as 0.05 µmol/min/mg, the kcat stood at 0.03 s⁻¹ and the specificity constant (kcat/Km) came to 1.03 ± 0.11 M⁻¹ s⁻¹.

B3: OxiE (Corynebacterium glutamicum ATCC 13032) (protein)
chain: MKNITIGMVGVGRIGRMHVANMLAVAETLKERDLNIEIVLADAMPGFAEQVGADMGVKAAASVDKLIEDGVDALFIATSTAGHVDVLRKGIAAKLPMFCEKPIASDVPESLNIIREIDAAGATVQVGHQRRFDLGYQEAKRRLDAGDLGWLHSLKAVSSDAFPPPVSYCATSGGLFRDVSLHDFDIIRWLTGQDIVEVYAKGSNNGDPEIGAVGDIDTGAALLTLADGTLATAIATRYNGAGHDVRLDVMGSKDSTIVGLDEKSAFASAEEGIDFPTGESHPTFAERFADAYKNECIAFVELILGERENPCTPADAVAAAIVADAAQLSLVTGEPVKIPTVREILEGSAQPVEVRALVPSA
notes: full length, C-terminal Strep-tag II, expressed in C. glutamicum MB001(DE3) from pPREx6-OxiE; StrepTactin and size exclusion
On to B3, for which, in the data set “purified protein [1]”, the Km turned out to be 54.1 ± 8.0 mM, the Vmax worked out at 0.005 µmol/min/mg, the kcat came out at 0.003 s⁻¹ and the kcat/Km came to 0.06 M⁻¹ s⁻¹. Also, in “purified protein [2]”, the Michaelis constant (Km) turned out to be 51.6 ± 3.6 mM, the Vmax was 3.1 µmol/min/mg, the kcat came to 3.9 ± 0.3 s⁻¹ and the kcat/Km is 76.7 ± 5.2 M⁻¹ s⁻¹. Moreover, in the data set “purified protein [3]”, the Km is 12.4 ± 0.8 mM, the Vmax amounted to 13.4 µmol/min/mg, the kcat came out at 8.5 ± 0.1 s⁻¹ and the kcat/Km was 689 ± 41.5 M⁻¹ s⁻¹.

B4: IolG (Corynebacterium glutamicum ATCC 13032) (protein)
chain: MSKSLRVGVVGAGAMGADHIDRINNRTSGAHISAIIEPDAARAAAAAEDAPGAQAFTRIEDAIAADAVDAVLIAVPGQFHEPVLVPALEAGLPILCEKPLTPDSESSLRIVELEQKLDKPHIQVGFMRRFDPEYNNLRKLVESGEAGELLMLRGLHRNPSVGESYTQSMLITDSVVHEFDVIPWLAGSRVVSVEVKYPKTSSLAHSGLKEPILVIMELENGVLVDVEMNVNIQFGYQVATEAVFEKGLARIGQPSGMQRWRDGEFLINEHTDFTTRFATAYDRQIQSWVDAVHEGTLVAGPNAWDGYLVALSCEAGVKALDGGVIPVDAAPRPDFYA
notes: full length, C-terminal Strep-tag II, expressed in C. glutamicum MB001(DE3) from pPREx6-IolG; StrepTactin and size exclusion
For B4, in the data set “purified protein [1]”, the Km is recorded as 61.93 ± 5.61 mM, the kcat was 8.66 ± 0.54 s⁻¹ and the catalytic efficiency (kcat/Km) amounted to 140 ± 7.4 M⁻¹ s⁻¹. In the data set “purified protein [2]”, the Km is listed as 60.9 ± 13.7 mM, the Vmax stood at 23.1 µmol/min/mg, the kcat came to 14 ± 1.9 s⁻¹ and the kcat/Km amounted to 235 ± 23.4 M⁻¹ s⁻¹.
